Assay results as given in the DeepSol protein solubility set.

Assay: soluble on expression in E. coli; label from the status in PepcDB or PDB records
In the case of “DSMADITACPGTDTCNLGISSSTGLSVEIEKMLLEEFPDTVFNKNIKIKISGCMNACGQHTIGNIGFHGMSIKNGTNVLPAMQVMLGGGLEPDGTGTIADKILKLPTRRCVEAVREILTDYDTNATEGEYFNDYYRRQVAAEKMYFYKLLKPLSDLETLTELDYIDL”, the “soluble on expression in E. coli” value is reported as “not soluble”.
For “DTDGLWAALTEAAASVEKLLATLPEHGARSSAERAEIAAAHDAARALRVRFLDTHADAVYDRLTDHRRVHLRLAELVEAAATAFPGLVPTQQQLAVERSLPQAAKEGHEIDQGIFLRAVLRSPLAGPHLLDAMLRPTPRALELLPEFVRTGEVEMEAVHLERRDGVARLTMCRDDRLNAEDGQQVDDMETAVDLALLDPGVRVGLLRGGVMSHPRYRGKRVFSAGINLKYLSQGGISLVDFLMRKELGYIHKLVRGVLTNDDRPGWWHSPRIEKPWVAAVDGFAIGGGAQLLLVFDRVLASSDAYFSLPAAKEGIIPGAANLRLGRFAGPRVSRQVILEGRRIWAKEPEARLLVDEVVEPDELDAAIERSLTRLDGDAVLANRRMLNLADESPDGFRAYMAEFALMQALRLYGHDVI”, the “soluble on expression in E. coli” value was “soluble”.
For “DTTKNIFIEGDNLDALKLLQENYLGKIKMVYIDPPYNTGNDFVYADDFVDEVSEFFLRSNQVDREGNRLTANPETSGRFHSDWLSMMYSRLKLSRNLLRDDGLIVIHIDENEYPNLEKLLAEIYGEKNNLGTIVWDKRNPKGDATGVAQQHELICIYCKDREFFKTTCEFQRPKENAGKMLAKAKQILSKEGGVTEKARKEYKDWVNQQDLTGGEKAYNQIDDNGDVFRPVSMAWPNKKKAPEDYFIPLIHPVTGKECPVPERGWRNPPATMQELLKSGLIIFGPDEKTQPTRKYRLNDNLFENIPSLLYYGGSDDALLADLKIPFDTPKPVQVAKRLIQSICKNDDILIDFFAGSCTAAHALMLLNAEDGANRRFIMVQLPEECDEKSEAKKLGYSVVSEIGKNRIRRAAKKIREEFSEILATRNTELDLGFRLLKVDTSNMAD”, the “soluble on expression in E. coli” value was “not soluble”.
For “DVTGLPTGFRDLDRITTGLHPDQLIILAARPAVGKTAFVLNIAQNVGTKQNRPVAIFSLEMGAESLVDRMLAAEGMVDSHSLRTGQLTDQDWNNVTIAQGALADAPIYIDDTPGIKITEIRARSRKLSQEVDDGLGLIVIDYLQLISGTRPENRQQEVSEISRQLKILAKELKVPVIALSQLSRGVEQRQDKRPVLSDI”, the “soluble on expression in E. coli” value was “not soluble”.
For “DVTNAEKLVYKYTNIAHSANPMYEAPSITDGKIFFNRKFKTPSGKEAACASCHTNNPANVGKNIVTGKEIPPLAPRVNTKRFTDIDKVEDEFTKHCNDILGADCSPSEKANFIAYLLTETKPTK”, the “soluble on expression in E. coli” value was “soluble”.
For “DYMRFALKGKQGKGMKMPEGVVSSNGEYYMKERMVTDPGLTLDNSGIAPQPSRRAKEDDGGAAEGGRQAADDEVRQDMQETPVLPSNTGSKQQQLDSLF”, the “soluble on expression in E. coli” value was “not soluble”.
For “EAAPAPAGKGKILAVTACPTGIAHTFMAADALKEKAKELGVEIKVETNGSSGIKHKLTAQEIEDAPAIIVAADKQVEMERFKGKRVLQVPVTAGIRRPQELIEKAMNQDAPIYQGSGGGSA”, the “soluble on expression in E. coli” value was “not soluble”.
In the case of “EAGMAAITAATAGNMQSQINYTRSNEKEADRFGIATLAKAGFDVQAMPRFFGRLADEYRYASKPPPMLLTHPLPEDRVADSRQRAQAYPPMRIAPSIDYHLARARIVARYAGIDGQAALGWFERTQKKASADIMPSFDYGRALVHLDNKRLSQAEPILKKLLAQDPGNPFYLDAMTDLYIEKKQPQKAVELLNSALKRNPQNKVLTINYANALLEANQNDQAVRTLQRYTHDNPEDSNGWQLLSKGYHALGRSDEELAARAEILALRANWNKAIQYYSEASKMAELGSLEQARYDARIDQLMIQRDRFMALQ”, the “soluble on expression in E. coli” value is reported as “not soluble”.
For “EAVREMVCEDDLSQTFITDGSLPACDITLEQAQNLARHVWGQGFAPPSFTDEFHVVRQQPLGAEGKHKKVWLQKDGCEFEAMFWRCSEDIPEYIRTVYRPVANEWRNNLELQLYIDYWEAA”, the “soluble on expression in E. coli” value was “not soluble”.
In the case of “EDSKALDEVVVVAFGTQKKESMISSIETIKPAELKVPSSNLTTALAGRMSGVIAYQRSGEPGKDNADFFIRGVTTFGYKKDPLILIDGIETTTTELARLQPDDIAAFSILKDATATALYGARGANGVIQVATKEGKEGA”, the “soluble on expression in E. coli” value is reported as “not soluble”.
For “EERNDWHFNIGAMYEIENVEGYGEDMDGLAEPSVYFNAANGPWRIALAYYQEGPVDYSAGKRGTWFDRPELEVHYQFLENDDFSFGLTGGFRNYGYHYVDEPGKDTANMQRWKIAPDWDVKLTDDLRFNGWLSMYKFANDLNTTGYADTRVETETGLQYTFNETVALRVNYYLERGFNMDDSRNNGEFSTQEIRAYLPLTLGNHSVTPYTRIGLDRWSNWDWQDDIEREGHDFNRVGLFYGYDFQNGLSVSLEYAFEWQDHDEGDSDKFHYAGVGVNYSFHHHHHH”, the “soluble on expression in E. coli” value was “soluble”.
With “EFVDPSWNYFDNRVHDIAIMEGQSQTKKWQKWLSQIEKRFGVDRNILLAIWSMESNYGKVLANKDVMRDTIRSLATLAYADQKRAKYAQAQLIAAMTILQNGEITRAQLTGSWAGAMGHTQFIPSSYLAYAIDMDGDGRRDIWTSVPDALATAANLLYMNGWQSKLPWGVEVKLPQGKNLPEDWHSFEQWAKLGVKQANGKHLPSLSERAILKYPDGPEGPIFLVTKNFFVLKRYNNADRYAFAVALLANRIAGHSGL” the “soluble on expression in E. coli” value was “not soluble”.
For “EGPIDKLKTPEDVPNDPLPLISDFEWSTLDIDDNLQLDELYKLLYDNYVEDIDATFRFKYSHEFFQWALKPPGWRKDWHVGVRVKSTGKLVAFIAATPVTFKLNKSNKVIDSVEINFLCIHKKLRNKRLAPVLIKEITRRVNKQNIWQALYTGGSILPTPLTTCRYQHRPINWSKLHDVGFSHLPPNQTKSSMVASYTLPNNPKLKGLRPMTGKDVSTVLSLLYKYQERFDIVQLFTEEEFKHWMLGHDENSDSNVVKSYVVEDENGIITDYFSYYLLPFTVLDNAQHDELGIAYLFYYASDSFEKPNYKKRLNELITDALITSKKFGVDVFNCLTCQDNTYFLKDCKFGSGDGFLNYYLFNYRTFPMDGGIDKKTKEVVEDQTSGIGVVLL”, the “soluble on expression in E. coli” value was “soluble”.
For “EHLPKLQPRPYSCASSSLFHPGKLHFVFNIVEFLSTATTEVLRKGVCTGWLALLVASVLQPNIHASHEDSGKALAPKISISPRTTNSFHLPDDPSIPIIMVGPGTGIAPFIGFLQHREKLQEQHPDGNFGAMWLFFGCRHKDRDYLFRKELRHFLKHGILTHLKVSFSRDAPVGEEEAPAKYVQDNIQLHGQQVARILLQENGHIYVCGDAKNMAKDVHDALVQIISKEVGVEKLEAMKTLATLKEEKRYLQDIWS”, the “soluble on expression in E. coli” value was “soluble”.
In the case of “EHRKVERGILAYQPGKLLVRGDTPLFKIERLLGIDLDHIEAETLAGLIYETLKRVPEEEEQMEVEGLRIIIKKMKGPKIVLAKVLKLD”, the “soluble on expression in E. coli” value is reported as “not soluble”.
With “EIKQNEQRLNAIVQNLVSGVMLINVDKQVIMTNRTMYQILGETEITGKPFYEVIKSFALSQLIDATFETKTMQQKEIILYFPREMILDASVSPILAENGEITGIILLLHDIT” the “soluble on expression in E. coli” value was “not soluble”.
With “EKAEDCWELQISPELLAHGRQKILDLLNEGSARDLRSLQRIGPKKAQLIVGWRELHGPFSQVEDLERVEGITGKQMESFLKANILGLAAGQ” the “soluble on expression in E. coli” value was “soluble”.
With “EKKPYIISNVGMTLDGKLATINNDSRISCEEDLIRVHKIRANVDGIMVGIGTVLKDDPRLTVHKIKSDRNPVRIVVDSKLRVPLNARVLNKDAKTIIATTEDTNEEKEKKIKILEDMGVEVVKCGRGKVDLKKLMDILYDKGIKSILLEGGGTLNWGMFKEGLVDEVSVYIAPKIFGGKEAPTYVDGEGFKTVDECVKLELKNFYRLGEGIVLEFKVKK” the “soluble on expression in E. coli” value was “soluble”.
For “ENKTLDEVTSDLVSRGAKFVGEELQLDVGGLLLHFFNYNGKIVVSSMKKVGFLQTLNRKRLENHPSFVFLEKEVPKSVFLEVFVDLYTLFDKLLGFSPRSSLLLIGYEEDGLIKYRLEVM”, the “soluble on expression in E. coli” value was “not soluble”.
With “EPDSVSIPITCCFNVINRKIPIQRLESYTRITNIQCPKEAVIFKTQRGKEVCADPKERWVRDSMKHLDQIFQNLKP” the “soluble on expression in E. coli” value was “soluble”.
For “EPFWADLQPRVAFVERGGSLWLNCSTNCPRPERGGLETSLRRNGTQRGLRWLARQLVDIREPETQPVCFFRCARRTLQARGLIRTFQRPDRVELMPLPPWQPVGENFTLSCRVPGAGPRASLTLTLLRGAQELIRRSFAGEPPRARGAVLTATVLARREDHGANFSCRAELDLRPHGLGLFENSSAPRELRTFSLS”, the “soluble on expression in E. coli” value was “soluble”.
For “EPKLDMNKQKISPAEVAKHNKPDDCWVVINGYVYDLTRFLPNHPGGQDVIKFNAGKDVTAIFEPLHAPNVIDKYIAPEKKLGPLQGSMPPELVCPPYAPGETKEDIARKEQLKSLLPPLDNIINLYDFEYLASQTLTKQAWAYYSSGANDEVTHRENHNAYHRIFFKPKILVDVRKVDISTDMLGSHVDVPFYVSATALCKLGNPLEGEKDVARGCGQGVTKVPQMISTLASCSPEEIIEAAPSDKQIQWYQLYVNSDRKITDDLVKNVEKLGVKALFVTVDAPSLGQREKDMKLKFSNTKAGPKAMKKTNVEESQGASRALSKFIDPSLTWKDIEELKKKTKLPIVIKGVQRTEDVIKAAEIGVSGVVLSNHGGRQLDFSRAPIEVLAETMPILEQRNLKDKLEVFVDGGVRRGTDVLKALCLGAKGVGLGRPFLYANSCYGRNGVEKAIEILRDEIEMSMRLLGVTSIAELKPDLLDLSTLKARTVGVPNDVLYNEVYEGPTLTEFEDA”, the “soluble on expression in E. coli” value was “soluble”.
In the case of “EPNRLIKEKSPYLLQHAYNPVDWYPWGEEAFEKARKENKPVFLSIGYSTCHWCHMMAHESFEDEEVAGLMNEAFVSIKVDREERPDIDNIYMTVCQIILGRGGWPLNIIMTPGKKPFFAGTYIPKNTRFNQIGMLELVPRIKEIWEQQHEEVLDSAEKITSTIQEMIKESSG”, the “soluble on expression in E. coli” value is reported as “soluble”.
In the case of “EQKVEAFNIQYKSRTSFKVQVKLNAQGKYQKSQVQSYLQQIGLNDGDLKQESGTLSADLIFTYTVPESNLFSRKNFDTLMKKINFNTTLKIDMVGKDEIMKKILQSTTFTNNLSSQTFQDQSIDLLPYLLYS”, the “soluble on expression in E. coli” value is reported as “not soluble”.
In the case of “ERLFQVFISLGVGKSAIRQHLASLDPTNSRDIEALADELSGKRPLLYRGVAMLLAHHSFAKSLREDAAGMWLQEKRHQLHSGLR”, the “soluble on expression in E. coli” value is reported as “not soluble”.
For “ETLPLMMFTANGGGYLTYANKWLKDYFGMLEIQSGKTEWTSLVNSSDTKQVRDEWEKAQTNQTHFRAQAKLKSKTAESALWHLISLVPVKNDLNQITSWTGFFVDI”, the “soluble on expression in E. coli” value was “not soluble”.
With “EVQLLESGGGLVQPGGSLRLSAAASGFTFSTFSMNWVRQAPGKGLEWVSYISRTSKTIYYADSVKGRFTISRDNSKNTLYLQMNSLRAEDTAVYYVARGRFFDYWGQGTLVTVS” the “soluble on expression in E. coli” value was “soluble”.
With “EVQLVESGGGLVQPGRSLRLSCAASGFTFDDYAMHWVRQAPGKGLEWVSGISWNSGSIGYADSVKGRFTISRDNAKNSLYLQMNSLRAEDTAVYYCARGRGFHYYYYGMDIWGQGTTVTVSSASTKGPSVFPLAPSSKSTSGGTAALGCLVKDYFPEPVTVSWNSGALTSGVHTFPAVLQSSGLYSLSSVVTVPSSSLGTQTYICNVNHKPSNTKVDKKVEPK” the “soluble on expression in E. coli” value was “soluble”.
For “EVVVRRLSDPVELEEAVEVHARAWGSRDYREVVAPHILRALVDNGGLVLGAFVGGRMVGASYGWFVGCGEGRYFYSHATGVEEGYKYRGVGFALKARQREEVLREGVSLAKWTFDPLQSLNTRFNLAKLGAVYRVYKVNYYGEMTDEINRGLGSDRVVAEWWL”, the “soluble on expression in E. coli” value was “not soluble”.
In the case of “FDASNFKDFSSIASASSSWQNQSGSTMIIQVDSFGNVSGQYVNRAQGTGCQNSPYPLTGRVNGTFIAFSVGWNNSTENCNSATGWTGYAQVNGNNTEIVTSWNLAYEGGSGPAIEQGQDTFQYVPTTENKSLLKD”, the “soluble on expression in E. coli” value is reported as “soluble”.
